We go through 3 substances from article PMC5892887.

The subject of data set [1] is ΔPR201 (bacteriophage T4). The experiment in a line: single-molecule DNA stretching. The note with it: Stopped-flow: 10 mM Tris-HCl pH 8.3, 0.1 mM Na2EDTA, 25 °C, NaCl varied (0.02 M for typical traces); DNA stretching: 0.1 M Na+.
The next data set deals with 1-295 (bacteriophage T4). The experiment in a line: single-molecule DNA stretching. The note with it: Stopped-flow: 10 mM Tris-HCl pH 8.3, 0.1 mM Na2EDTA, 25 °C, NaCl varied (0.02 M for typical traces); DNA stretching: 0.1 M Na+.
Data set [2] addresses Core domain of bacteriophage T4 gene 32 protein (*III; protein minus both N- and C-domains) (bacteriophage T4) (UniProt P03695). The experiment in a line: cross-linking; EDC/NHS zero-length cross-linking in solution, read by SDS-PAGE; 20 uM CTD and 4 uM core domain (*III) (5:1), 40 mM MES pH 6.0, 5% glycerol, 0.5 mM EDC, 1.25 mM NHS, room temperature; also with rising p(dT)7 or NaCl.

For data set [3] the target is unchanged. The experiment in a line: cross-linking + other: MALDI mass spectrometry; MALDI mass-spectroscopic analysis of the EDC/NHS cross-linked reaction mixture of CTD and core domain.
Data set [4] concerns *I (gp32 lacking C-domain) (bacteriophage T4). Briefly: single-molecule DNA stretching. The note with it: Stopped-flow: 10 mM Tris-HCl pH 8.3, 0.1 mM Na2EDTA, 25 °C, NaCl varied (0.02 M for typical traces); DNA stretching: 0.1 M Na+.
Data set [5] concerns gp32 (full-length gene 32 protein) (bacteriophage T4). The experiment in a line: single-molecule DNA stretching. The note with it: Stopped-flow: 10 mM Tris-HCl pH 8.3, 0.1 mM Na2EDTA, 25 °C, NaCl varied (0.02 M for typical traces); DNA stretching: 0.1 M Na+.

In the case of λ-DNA, double-stranded, the Ka was 4390 M⁻¹ in data set [1] and 5950 M⁻¹ in the data set with 1-295 (bacteriophage T4).

As for “C-terminal domain (CTD) of bacteriophage T4 gene 32 protein (domain or fragment)”, in data set [2], the percent inhibition of cross-linking at [p(dT)7]:[core domain] of 1 was 50% and the percent inhibition of cross-linking with 30 mM NaCl worked out at 50%. Also, in data set [3], the stoichiometry N (commonly a count of units in the complex or per binding partner) turned out to be 1.

For the substance λ-DNA, single-stranded (force-melted), the Ka in data set [4] came out at 1.5e+06 M⁻¹; in data set [1], 102000 M⁻¹; in the data set with 1-295 (bacteriophage T4), 99300 M⁻¹; in data set [5], 33600 M⁻¹.
